Test results taken from the DeepSol protein solubility set.

assay: soluble on expression in E. coli; label from the status in PepcDB or PDB records

Row | Sequence | soluble on expression in E. coli
1 | MFETCEAIVMRTVDYGETNKIVTLFTREWGKVAAMARGAKKPSSRLSAVTQPLSYGHYVIRRSRGVGVLHQGELIDSMRALREDLFAAAYAVYIVELTDKSTEEQKRNPYLFELLLQTLQYMSEGRDLEILTFIYEMKMLAVLGIPPVLDRCARCGATEGRFSFSVKEAGFLCHRCEASDPHRFPLSSASVRLLRLFFHIDLARLGSISVKESTKMELGSVLSAYYDEYAGLSLKTKRFLQQIGELKDKLSPDGGQGASFSL | not soluble
2 | MNKLRKTIGRLEVKCKNADAGCIVTCPLAHRKGHQDSCPFELTACPNEGCTSQVPRGTLAEHRQHCQQGSQQRCPLGCGATLDPAERARHNCYRELHNAWSVRQERRRPLLLSLLRRVRWLDQATSVVRRELAELSNFLEEDTALLEGAPQEEAEAAPEGNVGAEVVGEPRANIPCK | soluble
3 | MGIFSRFADIVNSNISALLDKAEDPEKMIRLIIQEMEDTLVEVRTNSAKAMADKKELARKVESIEQQLEDWQNKATLALTKQREDLARAALIEKQKLQHVLKGLHTEQMLVEETIEKLTGEIGKLETKITETRAKQQALAIRSQAASHRRDVQRHLHAGRTEEAMAKFEQFSRKVDELEAEADLYAQSGQARSLEQEFAELQAQDEIEKELNKLKAQMKSDQLEHHHHHH | soluble
4 | MSLTDHGFSFCAHAEQYAIIGSLSQLETSDNRDCDIRRPALNRCMAEKGTLRPEAAQIFQRLEALGLKQRELAQALGIEENKISKVRAGERQFKGAELLAAYEWLDQREAEAHMPRLSRVAAVGQQVIPATPVEGEVVQIQKLDLSLSMGPGTLIDGYVESELVSFDLGFVRLFTRAASDHLRLVTGIGDSMEPTLKWGDLILIDTTDRMLSKQDGIYWINLYGAAGIKRLRAIGPRTILVKSDNPGVDDQEVEAEDLRIEGRAIWATRGLEGHHHHHH | soluble
5 | MGSDKIHHHHHHVKIRLALPQDVDLLAMLEKKHLNDELASANMGLQGQAFSHSELSELVQRHWVVVAQVEQQIVGYVIAGRWGFFEHWPIYRTLLNRLGQLDWDGPKLTKTNSCQYGPIWVQQAYRGQGIFEALVSEIRRQVAPHFSYMLTFIAEDNERSFAAHSGKAHMQVVDFFTVSARDYYLMAAKTQA | not soluble
6 | MVESTTTIYDVARVAGVSMATVSRVVNGNANVKEKTRQKVLEAIAELDYRPNAVARGLASKRTTTVGVILPTITSTYFAAITRGVDDIASMYKYNMILANSDNDVEKEEKVLETFLSKQVDGIVYMGSSLDEKIRTSLKNSRTPVVLVGTIDGDKEIPSVNIDYHLAAYQSTKKLIDSGNKKIAYIMGSLKDVENTERMVGYQEALLEANIEFDENLVFEGNYSYEQGKALAERLLERGATSAVVSHDTVAVGLLSAMMDKGVKVPEDFEIISGANSPITQYTYPTLTSVNQPLYDLGAVAMRLLTKLMLKEDVEQNQLVLDHEIFSRRSTK | soluble
7 | MGSDKIHHHHHHMFRTNPLKIIMLGPSLLQQGGISGYEKLFLEYAPSEIHICHIITHEEGTIAFKIMVFLKAIWKFIWMLISEEIDIVQLEISQRGSVFRQSIMILLAWVFHKPIILHAHGSQFHIFYAGLANWIQKLLSWIFCKCQRLIVLSESWKSFYIDTLGLKSEQVVVFYNPVKVPTEVPSRSFSTKLNLLFLGRIGQRKGAFDLIKAFSSLPTEYQTRSIMVMAGDGDIEKARDLVTTLNLQDYIQLPGWIGSDERDILLSKADIFVLPSYNEGLPLAMLEAMAWELPVIVTPVGGIPEIVTQSENGLIVNPGNVEQLSNAIKSLIENEALRLSLGAKARTSVFPLDIKKHWVDFIDLYNLVLNTMEEHSKG | not soluble
8 | GMEKKSSYKTVLLGESSVGKSSIVLRLTKDTFHENTNTTIGASFCTYVVNLNDINIKNNSNNEKNNNINSINDDNNVIITNQHNNYNENLCNIKFDIWDTAGQERYASIVPLYYRGATCAIVVFDISNSNTLDRAKTWVNQLKISSNYIIILVANKIDKNKFQVDILEVQKYAQDNNLLFIQTSAKTGTNIKNIFYMLAEEIYKNIIN | soluble
9 | MGSDKIHHHHHHMVTETYINKLLAPIRRRITGMLTRAVVSGIVEDLQRQNLQVKMHADESADNIERFQNYGMSSYPPEGAEAIVAALGGALSGLVAIAVEDKKFRPKGESGDVFLYHLEGHKIRLTKDGKIILTAQDVIFEIENSFTISTTDVIFNASGSFTIISPETLIDGPLHVTGDISTDLGITAVNGITSNSVITGSDLSANNISYLGHIHKDAENRPTTAPE | not soluble
